According to PMC10848371:
Where two headings read alike, the source gives them in different places.

PD-1 (programmed cell death protein 1): 3NQ (N49Q, N58Q, N74Q)
decreases: localisation_or_trafficking (N-glycosylation at N49) | stability_or_folding (N-glycosylation at N49) | localisation_or_trafficking (N-glycosylation at N58) | stability_or_folding (N-glycosylation at N58) | localisation_or_trafficking (N-glycosylation at N74) | stability_or_folding (N-glycosylation at N74)
